Source: publication PMC11323322
Changes are numbered by the printed parent chain. Values belong to the molecule of their own block, whether it stands above or below them.

How the values were obtained:
[1] = tested on: AIR-3A (RNA, G4) GGGGAGGCUGUGGUGAGGG; assay: fluorescence enhancement
[2] = tested on: CIL-6A6-1 (DNA, G4, circular (5' and 3' ends ligated)) ATCTCGACTAGTCAGTGGTGGATATGGGGAGGCTGTGGTGAGGGTATGGTTGTCTCGGATTGGTTGTCTCGGAT; assay: fluorescence enhancement
[3] = tested on: CIL-6A6-1A (DNA, G4, circular) ATCTCGACTAGTCAGTGGTGGATATGTGCACACTGTTGTGAACGTATGGTTGTCTCGGATTGGTTGTCTCGGAT; assay: fluorescence enhancement
[4] = target: T1, sIL-6R (soluble IL-6 receptor alpha) (human, UniProt P08887 20-355); assay: pull-down, real-time PCR; 1x PBSMT pH 7.2: 137 mM NaCl, 2.68 mM KCl, 8.1 mM Na2HPO4, 1.76 mM KH2PO4, 1 mM MgCl2, 0.025% Tween-20; pull-down 1 h (room temperature in SELEX); MST at 25 C; conditions: protein: commercial; circular
[5] = target: T2, IL-6 (interleukin-6) (human, UniProt P05231 30-212); assay: as above; conditions: protein: commercial; circular
[6] = target: T1, sIL-6R (soluble IL-6 receptor alpha); assay: MST; 1x PBSMT pH 7.2: 137 mM NaCl, 2.68 mM KCl, 8.1 mM Na2HPO4, 1.76 mM KH2PO4, 1 mM MgCl2, 0.025% Tween-20; pull-down 1 h (room temperature in SELEX); MST at 25 C; conditions: protein: commercial
[7] = target: T1, sIL-6R (soluble IL-6 receptor alpha); assay: pull-down, real-time PCR; fully functional; 1x PBSMT pH 7.2: 137 mM NaCl, 2.68 mM KCl, 8.1 mM Na2HPO4, 1.76 mM KH2PO4, 1 mM MgCl2, 0.025% Tween-20; pull-down 1 h (room temperature in SELEX); MST at 25 C; conditions: protein: commercial; circular
[8] = target: T2, IL-6 (interleukin-6); assay: as above; conditions: protein: commercial; circular
[9] = target: T2, IL-6 (interleukin-6); assay: pull-down, real-time PCR; affinity largely retained; 1x PBSMT pH 7.2: 137 mM NaCl, 2.68 mM KCl, 8.1 mM Na2HPO4, 1.76 mM KH2PO4, 1 mM MgCl2, 0.025% Tween-20; pull-down 1 h (room temperature in SELEX); MST at 25 C; conditions: protein: commercial; circular
[10] = target: T1, sIL-6R (soluble IL-6 receptor alpha); assay: pull-down, real-time PCR; smaller Kd than CIL-6A; value only in figure; 1x PBSMT pH 7.2: 137 mM NaCl, 2.68 mM KCl, 8.1 mM Na2HPO4, 1.76 mM KH2PO4, 1 mM MgCl2, 0.025% Tween-20; pull-down 1 h (room temperature in SELEX); MST at 25 C; conditions: protein: commercial; circular; two putative antiparallel G4 motifs
[11] = target: T2, IL-6 (interleukin-6); assay: as above; conditions: protein: commercial; circular; two putative antiparallel G4 motifs
[12] = target: T2, IL-6 (interleukin-6); assay: MST; 1x PBSMT pH 7.2: 137 mM NaCl, 2.68 mM KCl, 8.1 mM Na2HPO4, 1.76 mM KH2PO4, 1 mM MgCl2, 0.025% Tween-20; pull-down 1 h (room temperature in SELEX); MST at 25 C; conditions: protein: commercial; linear
[13] = order of intensities similar to ThT

T1 sequence (P08887 20-355): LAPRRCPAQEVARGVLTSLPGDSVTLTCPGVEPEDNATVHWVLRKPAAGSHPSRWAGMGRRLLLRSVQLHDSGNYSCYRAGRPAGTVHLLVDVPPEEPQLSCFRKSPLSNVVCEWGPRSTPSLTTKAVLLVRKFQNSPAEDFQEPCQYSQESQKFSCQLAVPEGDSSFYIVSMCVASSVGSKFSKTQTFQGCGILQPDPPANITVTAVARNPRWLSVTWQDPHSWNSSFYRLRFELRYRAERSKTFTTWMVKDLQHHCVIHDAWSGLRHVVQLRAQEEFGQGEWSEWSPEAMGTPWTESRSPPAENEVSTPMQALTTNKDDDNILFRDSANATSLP
T2 sequence (P05231 30-212): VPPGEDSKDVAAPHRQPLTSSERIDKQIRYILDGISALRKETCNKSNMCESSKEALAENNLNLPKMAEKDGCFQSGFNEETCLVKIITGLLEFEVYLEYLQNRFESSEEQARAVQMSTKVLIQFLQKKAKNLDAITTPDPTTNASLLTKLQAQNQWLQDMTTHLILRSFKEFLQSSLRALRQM

binding ([1]; excitation 425 nm, second highest intensity, with or above CIL-6A6-1A): yes
binding ([2]; excitation 425 nm, highest intensity of the five sequences): yes
binding ([3]; excitation 425 nm, intensity below CIL-6A6-1): yes
Molecule: Cc1ccc2c(c1)sc(-c1ccc(N(C)C)cc1)[n+]2C

binding [1, 13]: yes
binding ([2]; fluorescence decreased by added 50 and 100 mM Li+): yes
binding [3, 13]: yes
Molecule: CCc1c(C)c2cc3nc(cc4nc(cc5c(CC)c(C)c(cc1[nH]2)n5C)C(C)=C4CCC(=O)O)C(CCC(=O)O)=C3C

B1: CIL-6A4-1 (ssDNA)
DNA: ATCTCGACTAGTCAGGGATACCGGATGGGGAGGCTGTGGTGAGGGTATGGTTGTCTCGGATTGGTTGTCTCGGAT
modifications: circular
binding result [4]: binds
binding result [5]: binds

B2: CIL-6D (ssDNA)
DNA: ATCTCGACTAGTTAGACGCTACGTGCGGATGGGGAGGCTGTGGTGAGGGTTGGTGTTCTCGGATGATGGTGTCTCGGAT
modifications: circular
binding result [4]: binds

B3: CIL-6C (ssDNA)
DNA: ATCTCGACTAGTCATATGGTGTAGATCCTTGGGGAGGCTGTGGTGAGGGGGTTGAAGGTAGTTGCTCGTTGTCTCGGAT
modifications: circular
binding result [4]: binds
binding result [5]: binds

Molecule: GGGGAGGCUGUGGUGAGGG (structured_RNA) [AIR-3A]
Kd ([6]; G4, 2-tiered): 67.5 nM

B4: CIL-6A46 (ssDNA)
DNA: ATCTCGACTAGTCAGGGATATGGGGAGGCTGTGGTGAGGGTATGGTTGTCTCGGATTGGTTGTCTCGGAT
modifications: circular
binding result [4]: binds
binding result [5]: binds

B5: CIL-6A (ssDNA)
DNA: ATCTCGACTAGTCAGTGGTGGATACCGGATGGGGAGGCTGTGGTGAGGGTATGGTTGTCTCGGATTGGTTGTCTCGGAT
modifications: circular (5'-3' ligated)
Kd [4]: 6.9 nM
Kd [5]: 8.5 nM

B6: CIL-6A4 (ssDNA)
DNA: B5 DNA with G17T, G18T
modifications: circular
binding result [7]: binds
binding result [8]: binds

B7: CIL-6A6 (ssDNA)
DNA: B5 DNA with C25T, C26T, G27T, G28T, A29T
modifications: circular
binding result [7]: binds
binding result [8]: binds

B8: CIL-6A-C (ssDNA)
DNA: ATCTCGACTAGTCAGTGGTGGATACCGGATTTTTTTTTTTTTTTTTTTTTATGGTTGTCTCGGATTGGTTGTCTCGGAT
modifications: circular
binding result [4]: no binding
binding result [9]: binds

B9: CIL-6A-R (ssDNA)
DNA: ATCTCGACTATTTTTTTTTTTTTTTTTTTTGGGGAGGCTGTGGTGAGGGTTTTTTTTTTTTTTTTTTTTTGTCTCGGAT
modifications: circular
binding result [5]: no binding

B10: CIL-6A6-1 (structured_DNA)
DNA: ATCTCGACTAGTCAGTGGTGGATATGGGGAGGCTGTGGTGAGGGTATGGTTGTCTCGGATTGGTTGTCTCGGAT
modifications: circular
Kd [10]: < 6.9 nM
Kd [11]: < 8.5 nM

B11: IL-6A6-1 (linear form of CIL-6A6-1) (ssDNA)
DNA: B10 DNA
modifications: linear
binding result ([6]; linear): no binding
binding result [12]: no binding

B12: CIL-6B (ssDNA)
DNA: ATCTCGACTAGTCAGGTGTTGTAATGGTAAGGGGAGGCTGTGGTGAGGGTTGGTTGTCACGGATAGTTGTGTCTCGGAT
modifications: circular
binding result [4]: binds
